No end group written: not given here. *: point of attachment. FITC = O=C1OC2(c3ccc(O)cc3Oc3cc(O)ccc32)c2ccc(NC(=S)*)cc21
B1: SLYSYFQKV (SEQ ID NO: 5), SLC45A2-derived peptide (peptide)
peptide: SLYSYFQKV
notes: also called Immunogenic SLC45A2-derived peptide; SLC45A2 antigen peptide
B2: SLLPIMWQLY (SEQ ID NO: 6), TCL1-derived peptide (peptide)
peptide: SLLPIMWQLY
notes: also called Non-Immunogenic TCL1-derived peptide

Tests used:
[1] = target: T1, HLA-A*02:01 MHC Class I complex (recombinant, biotinylated) (human, biotinylated (lysine of a C-terminal BirA recognition sequence)); test: pMHC on streptavidin beads held in T cell culture media at 37 C for 0-48 h; APC W6/32 staining, flow cytometry MFI fitted to an exponential decay
T1 construct: Bought as a peptide-loaded complex (Biolegend or other maker); also called pHLA (when loaded with peptide)

[2] = target: T1, HLA-A*02:01 MHC Class I complex …; test: loading into HLA-A*02:01 and catalysed peptide exchange test

Binder	half-life of the complex [1]	binding result [2]
B1	~17 h	–
GAATK(FITC)MAAV [EP5 GAATKMAAV (SEQ ID NO: 13), FITC-labelled in-place peptide GAAT{Lys(FITC)}MAAV]	–	binds
B2	~0.5 h	–

From US20240272171A1 (PHENOMEX, published 2024)
